Results as given in paper PMC12455602.

Legend:
[1] = target: SscR^Ac (RSS-sensitive transcription factor in copper stress response), MarR family transcriptional regulator of Acidithiobacillus caldus (Acidithiobacillus caldus); test: SEC
[2] = target: SscR^Ac after H2Sn treatment (persulfidated SscR^Ac) (Acidithiobacillus caldus); test: SEC

| stoichiometry N [1] | stoichiometry N [2] | Substance |
| --- | --- | --- |
| 4 |  | SscR^Ac (RSS-sensitive transcription factor in copper stress response), MarR family transcriptional regulator of Acidithiobacillus caldus (natural protein) |
|  | 4 | SscR^Ac after H2Sn treatment (persulfidated SscR^Ac) (natural protein) |
